Data reported in patent US20210395344A1 (TWIST BIOSCIENCE, published 2021).
Residue numbers refer to the chain shown, from its start. Like-named read-outs stand apart in the source and are kept apart here.

B1: 4-147 (antibody, V domains shown)
VH: EVQLVESGGGLVQPGGSLRLSCAASGGTFSVYAMGWFRQAPGKEREGVAAISMSGDDAAYADSVKGRFTISADNSKNTAYLQMNSLKPEDTAVYYCAKISKDDGGKPRGAFFDSWGQGTLVTVSS
B2: 1-47 (antibody, V domains shown)
VH: EVQLLESGGGLVQPGGSLRLSCAASGFTFSSQAMSWVRQAPGKGLEWVSAISGSGGGTYYADSVKGRFTISRDNSKNTLYLQMNSLRAEDTAVYYCAKDRRFGEFDPWGQGTLVTVSS
VL: QSALTQPASVSGSPGQSITISCTGTSSGVGSYNLVSWYQQHPGKAPKLMIYEGIKRPSGVSNRFSGSKSGNTASLTISGLQAEDEADYYCCSYAGSSSFVVFGGGTKLTVL
notes: also called variant 1-47
B3: 1-10 (antibody, V domains shown)
VH: EVQLLESGGGLVQPGGSLRLSCAASGFTFSSYDMSWVRQAPGKGLEWVSVISGSGGSTYYADSVKGRFTISRDNSKNTLYLQMNSLRAEDTAVYYCAKGPLVGWYFDLWGQGTLVTVSS
VL: B2 VL with G28N, I54T
notes: also called variant 1-10
B4: 1-7 (antibody, V domains shown)
VH: B3 VH
VL: B2 VL with G28D, V29F, I54N, S98T
notes: also called variant 1-7
B5: 1-4 (antibody, V domains shown)
VH: B2 VH
VL: B2 VL with G28D, S31T, I54S, K55Q
B6: 1-28 (antibody, V domains shown)
VH: EVQLLESGGGLVQPGGSLRLSCAASGFTFSSYGMSWVRQAPGKGLEWVSAISGSGGGTYYADSVKGRFTISRDNSKNTLYLQMNSLRAEDTAVYYCASSSSWQFDYWGQGTLVTVSS
VL: B2 VL with I54S, K55Q, S98T, F99H, V100Y
B7: 1-31 (antibody, V domains shown)
VH: EVQLLESGGGLVQPGGSLRLSCAASGFTFSSYAMNWVRQAPGKGLEWVSAISGSGGSTFYADSVKGRFTISRDNSKNTLYLQMNSLRAEDTAVYYCTRPPYGDYGDYWGQGTLVTVSS
VL: B2 VL with G28D, S31K, I54S, K55Q, S97R, S98T, F99P
B8: 1-3 (antibody, V domains shown)
VH: B2 VH
VL: B2 VL with T25I, G28D, I54T
B9: 4-124 (antibody, V domains shown)
VH: EVQLVESGGGLVQPGGSLRLSCAASGNIFTRNVMGWFRQAPGKEREFVAAITSSGSTNYADSVKGRFTISADNSKNTAYLQMNSLKPEDTAVYYCARPSSDLQGGVDYWGQGTLVTVSS
B10: 4-119 (antibody, V domains shown)
VH: EVQLVESGGGLVQPGGSLRLSCAASGFAFSSYAMGWFRQAPGKEREWVATINGDDYTYYADSVKGRFTISADNSKNTAYLQMNSLKPEDTAVYYCVATPGGYGLWGQGTLVTVSS
B11: 1-23 (antibody, V domains shown)
VH: EVQLLESGGGLVQPGGSLRLSCAASGFTFSSYAISWVRQAPGKGLEWVSIISGSGGSTYYADSVKGRFTISRDNSKNTLYLQMNSLRAEDTAVYYCAREGYRDYLWYFDLWGQGTLVTVSS
VL: QSALTQPASVSGSPGQSITISCTGTSNDVGSYNLVSWYQQHPGKAPKLMIYEGNKRPSGVSNRFSGSKSGNTASLTISGLQAEDEADYYCCSYAGSYTVFGGGTKLTVL
notes: also called variant 1-23
B12: 1-24 (antibody, V domains shown)
VH: B11 VH with I34M, S35N
VL: B11 VL with N27S, S31Y, S96G, Y97S, T98V
notes: also called variant 1-24
B13: 4-139 (antibody, V domains shown)
VH: EVQLVESGGGLVQPGGSLRLSCAASGGGTFGSYAMGWFRQAPGKEREFVAAISIASGASGGTTNYADSVKGRFTISADNSKNTAYLQMNSLKPEDTAVYYCATTMNPNPRWGQGTLVTVSS
B14: 1-17 (antibody, V domains shown)
VH: EVQLLESGGGLVQPGGSLRLSCAASGFTFSSYAMYWVRQAPGKGLEWVSAISGSAGSTYYADSVKGRFTISRDNSKNTLYLQMNSLRAEDTAVYYCARDTNDFWSGYSIFDPWGQGTLVTVSS
VL: QSALTQPASVSGSPGQSITISCTGTSSDIGSYNLVSWYQQHPGKAPKLMIYEGTKRPSGVSNRFSGSKSGNTASLTISGLQAEDEADYYCCSYAGSRTYVFGGGTKLTVL
B15: 1-17 (antibody, V domains shown)
VH: B14 VH
VL: B14 VL
notes: also called variant 1-17
B16: 1-42 (antibody, V domains shown)
VH: EVQLLESGGGLVQPGGSLRLSCAASGVTFSSYAMSWVRQAPGKGLEWVSAITGSGGSTYYADSVKGRFTISRDNSKNTLYLQMNSLRAEDTAVYYCAKHGSGTIFGVVIAKYYFDYWGQGTLVTVSS
VL: B14 VL with I29V, S31R, T54G, G95S, R97S, Y99L
notes: also called variant 1-42

Experiments:
human ACE2 = human ACE2 (human, UniProt Q9BYF1 18-740)
S1-Fc [1] = target: T1, S1-Fc (SARS-CoV-2, UniProt P0DTC2 16-685); experiment: phage ELISA
[2] = target: T2, COVID S1 RBM Fc fusion (Antigen 2) (SARS-CoV-2, UniProt P0DTC2 437-508); experiment: phage ELISA
T2 construct: domain: RBM

[3] = target: T3, COVID S1 RBD Fc fusion (Antigen 1) (SARS-CoV-2, UniProt P0DTC2 319-541); experiment: phage ELISA
T3 construct: domain: RBD

[4] = target: T4, SARS-CoV-2 S1 (antigen of the Carterra SPR kinetics) (SARS-CoV-2, UniProt P0DTC2 16-685); experiment: Carterra SPR
S1-Fc [5] = target: T1, S1-Fc; experiment: phage ELISA; remark: listed apart in the source
[6] = target: T2, COVID S1 RBM Fc fusion (Antigen 2); experiment: phage ELISA; remark: listed apart in the source
[7] = target: T3, COVID S1 RBD Fc fusion (Antigen 1); experiment: phage ELISA; remark: listed apart in the source
[8] = target: T4, SARS-CoV-2 S1 (antigen of the Carterra …); experiment: Carterra SPR; remark: listed apart in the source
[9] = target: T5, SARS-CoV-2 Spike Glycoprotein S1 (subunit 1) (SARS-CoV-2, UniProt P0DTC2 16-685); experiment: screening phage ELISA, mean
T5 construct: also called S1 Monomer; SARS-CoV-2 S1

[10] = target: T5, SARS-CoV-2 Spike Glycoprotein S1 …; experiment: screening phage ELISA, mean; remark: listed apart in the source
[11] = target: T5, SARS-CoV-2 Spike Glycoprotein S1 …; experiment: column Fc/S1 (format not explained)
[12] = target: T5, SARS-CoV-2 Spike Glycoprotein S1 …; experiment: column DC/S1 (format not explained)
[13] = target: T5, SARS-CoV-2 Spike Glycoprotein S1 …; experiment: ELISA binding titration
[14] = target: T5, SARS-CoV-2 Spike Glycoprotein S1 …; experiment: column Inhibitor IC50 (assay not explained)
[15] = target: SARS-CoV-2 S protein trimer (SARS-CoV-2, UniProt P0DTC2 16-1213); experiment: column Fc/S-T (format not explained)

Chain of human ACE2 (Q9BYF1 18-740 limits assumed): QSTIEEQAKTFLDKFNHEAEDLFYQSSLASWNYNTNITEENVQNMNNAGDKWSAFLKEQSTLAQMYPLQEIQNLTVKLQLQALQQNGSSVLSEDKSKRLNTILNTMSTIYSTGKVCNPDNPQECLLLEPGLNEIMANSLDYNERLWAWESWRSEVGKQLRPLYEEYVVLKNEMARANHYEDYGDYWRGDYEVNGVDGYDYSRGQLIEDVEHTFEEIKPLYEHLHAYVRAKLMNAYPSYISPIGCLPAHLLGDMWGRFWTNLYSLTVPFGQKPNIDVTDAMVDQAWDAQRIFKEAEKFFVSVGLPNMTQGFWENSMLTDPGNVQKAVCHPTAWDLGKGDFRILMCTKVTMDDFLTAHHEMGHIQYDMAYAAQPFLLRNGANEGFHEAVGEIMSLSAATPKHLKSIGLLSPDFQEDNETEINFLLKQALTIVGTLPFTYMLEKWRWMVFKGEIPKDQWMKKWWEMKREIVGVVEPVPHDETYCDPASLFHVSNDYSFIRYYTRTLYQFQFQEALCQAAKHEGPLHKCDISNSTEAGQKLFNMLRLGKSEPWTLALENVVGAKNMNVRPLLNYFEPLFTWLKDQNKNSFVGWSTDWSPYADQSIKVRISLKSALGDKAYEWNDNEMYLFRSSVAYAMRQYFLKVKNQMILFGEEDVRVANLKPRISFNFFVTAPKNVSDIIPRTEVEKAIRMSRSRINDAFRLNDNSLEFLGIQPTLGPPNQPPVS

Binder | ELISA fold over background (S1-Fc [1]) [fold over background] | ELISA fold over background [2] [fold over background] | ELISA fold over background [3] [fold over background] | kon [4] [M⁻¹ s⁻¹] | ELISA fold over background (S1-Fc [5]) [fold over background] | ELISA fold over background [6] [fold over background] | ELISA fold over background [7] [fold over background] | Kd [8] [nM] | kon [8] [M⁻¹ s⁻¹] | ELISA (Avg) [9] | ELISA (Avg) [10] | Kd [12] [nM] | further results
B1 |  |  |  |  |  |  |  |  |  |  |  |  | IC50 (human ACE2): 68.3 nM
B2 | 1.2 | 0.9 | 5.5 | 6320 | 1.2 | 0.9 | 5.5 | 38000 | 6320 |  |  |  | koff [4]: 0.24 s⁻¹; koff [8]: 0.24 s⁻¹
B3 | 1.3 | 1.1 | 17.4 | 1.04e+06 | 1.3 | 1.1 | 17.4 | 142 | 1.04e+06 |  |  |  | koff [4]: 0.147 s⁻¹; koff [8]: 0.147 s⁻¹
B4 | 1.7 | 1.6 | 3.3 | 1.34e+06 | 1.7 | 1.6 | 3.3 | 127 | 1.34e+06 |  |  |  | koff [4]: 0.17 s⁻¹; koff [8]: 0.17 s⁻¹
B5 |  |  |  |  |  |  |  |  |  | 20.6 | 20.6 | 659 | Kd [11]: 25.5 nM; EC50 [13]: 2.56 nM
B6 |  |  |  |  |  |  |  |  |  | 17.7 | 17.7 | 520 | Kd [11]: 3240 nM; EC50 [13]: 2.28 nM
B7 |  |  |  |  |  |  |  |  |  | 20.7 | 20.7 | 14.4 | Kd [11]: 17.5 nM; IC50 [14]: 9.2 nM; EC50 [13]: 0.203 nM
B8 |  |  |  |  |  |  |  |  |  | 23.9 | 23.9 | 253 | IC50 [14]: 15.7 nM; EC50 [13]: 0.133 nM
B9 |  |  |  |  |  |  |  |  |  |  |  |  | IC50 (human ACE2): 54.4 nM
B10 |  |  |  |  |  |  |  |  |  |  |  |  | IC50 (human ACE2): 4.37 nM
B11 | 1.6 | 1.6 | 3.6 | 506000 | 1.6 | 1.6 | 3.6 | 315 | 506000 |  |  |  | koff [4]: 0.159 s⁻¹; koff [8]: 0.159 s⁻¹
B12 | 1.1 | 1.3 | 11 | 1.94e+08 | 1.1 | 1.3 | 11 | 75.5 | 1.94e+08 |  |  |  | 
B13 |  |  |  |  |  |  |  |  |  |  |  |  | IC50 (human ACE2): 20.2 nM
B14 |  |  |  |  |  |  |  |  |  | 27.4 | 27.4 | 6650 | Kd [15]: 10 nM
B15 | 1.6 | 1.3 | 20.1 | 3.92e+08 | 1.6 | 1.3 | 20.1 | 67.1 | 3.92e+08 |  |  |  | 
B16 | 1.4 | 1 | 20.8 | 9.1e+08 | 1.4 | 1 | 20.8 | 113 | 9.1e+08 |  |  |  | 
